Article PMC3052743

Target: T1, full-length gp130 with a C-terminal EYMPME (Glu-Glu) epitope tag, P40189
T1 chain: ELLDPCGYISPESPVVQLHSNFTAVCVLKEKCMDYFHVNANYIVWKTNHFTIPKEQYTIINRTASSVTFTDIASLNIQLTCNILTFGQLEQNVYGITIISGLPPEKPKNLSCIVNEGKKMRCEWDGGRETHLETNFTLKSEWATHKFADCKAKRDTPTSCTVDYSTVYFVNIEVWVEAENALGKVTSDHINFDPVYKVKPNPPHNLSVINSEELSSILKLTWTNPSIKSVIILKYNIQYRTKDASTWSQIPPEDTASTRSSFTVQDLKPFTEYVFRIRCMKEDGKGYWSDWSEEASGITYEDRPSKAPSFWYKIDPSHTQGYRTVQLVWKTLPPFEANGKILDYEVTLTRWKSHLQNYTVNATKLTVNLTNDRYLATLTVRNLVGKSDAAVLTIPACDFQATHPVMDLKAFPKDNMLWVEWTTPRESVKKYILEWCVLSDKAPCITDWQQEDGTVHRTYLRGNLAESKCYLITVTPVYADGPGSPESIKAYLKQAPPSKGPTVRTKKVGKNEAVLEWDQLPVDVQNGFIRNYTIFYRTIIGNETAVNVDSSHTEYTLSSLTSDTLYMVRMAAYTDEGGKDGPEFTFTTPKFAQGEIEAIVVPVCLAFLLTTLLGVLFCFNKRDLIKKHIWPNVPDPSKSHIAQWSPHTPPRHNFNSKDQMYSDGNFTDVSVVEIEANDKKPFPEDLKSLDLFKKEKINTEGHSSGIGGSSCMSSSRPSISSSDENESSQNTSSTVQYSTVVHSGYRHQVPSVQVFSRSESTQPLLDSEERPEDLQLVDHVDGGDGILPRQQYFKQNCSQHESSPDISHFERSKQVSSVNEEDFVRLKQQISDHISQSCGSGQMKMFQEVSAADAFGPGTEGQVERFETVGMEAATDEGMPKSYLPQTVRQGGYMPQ
Test: SEC
Details: remark: other sources report otherwise

stoichiometry N: 2
B1: full-length gp130 with a C-terminal EYMPME (Glu-Glu) epitope tag, P40189 23-918 (receptor)
chain: T1 chain
